Results on three molecules are retold here after US10696719B2, “Nucleoside triphosphate transporter and uses thereof” (THE SCRIPPS RESEARCH INSTITUTE, priority 2016, dated 2020).

Assay type in all cases: cell-based
Data set [1] relates to E. coli BL21(DE3). How it is done: (§1) Unless otherwise stated, liquid bacterial cultures were grown in 2×YT (casein peptone 16 g/L, yeast extract 10 g/L, NaCl 5 g/L) supplemented with potassium phosphate (50 mM, pH 7), referred to hereafter as “media”, and incubated at 37° C. in a 48-well flat bottomed plate (CELLSTAR, Greiner Bio-One) with shaking at 200 rpm. Solid growth media was prepared with 2% agar. Antibiotics were used, as appropriate, at the following concentrations: carbenicillin, 100 μg/mL; streptomycin, 50 μg/mL; kanamycin, 50 μg/mL; zeocin, 50 μg/mL; chloramphenicol, 33 μg/mL for plasmids, 5 μg/mL for chromosomal integrants. All selective agents were purchased commercially. Cell growth, indicated as OD600, was measured using a Perkin Elmer Envision 2103 Multilabel Reader with a 590/20 nm filter.
(§2) Doubling times for strains grown in the dATP uptake assay were calculated by doubling time as (t2−t1)/log2(OD600,2/OD600,1), averaging across three, ˜30 min time intervals roughly corresponding to 30 min prior to dATP uptake and 60 min during dATP uptake.

Data set [2] has as its system E. coli C41(DE3). The data set is described as follows: growth / toxicity of transporter expression. As to the method:
as §1, §2

Data set [3] concerns E. coli C41(DE3). The data set is described as follows: dATP uptake assay. As to the method:
(§3) Radioactive uptake assays were conducted as described in Haferkamp, et al., “Tapping the nucleotide pool of the host: novel nucleotide carrier proteins of Protochlamydia amoebophila,” Mol. Microbiol. 60, 1534-1545 (2006) with the following modifications: C41(DE3) and BL21(DE3) strains carrying plasmid-based transporters and their appropriate empty plasmid controls, as well as BL21(DE3) chromosomal transporter integrants and their appropriate isogenic transporter-less control, were grown overnight with appropriate antibiotics (streptomycin for pCDF plasmids and chloramphenicol for pSC plasmids and integrants) in 500 μL of media. Cultures were diluted to an OD600 of 0.02 in 500 μL of fresh media, grown for 2.5 h, induced with IPTG (0-1 mM, pCDF strains only) or grown (all other strains) for 1 h, and incubated with dATP spiked with [α-^32P]-dATP (final concentration=250 μM (0.5 μCi/mL)) for ˜1 h. […]
(§4) Following incubation with dATP, 200 μL of each culture was collected through a 96-well 0.65 μm glass fiber filter plate (MultiScreen, EMD Millipore) under vacuum and washed with cold potassium phosphate (3×200 μL, 50 mM, pH 7) and cold ddH2O (1×200 μL). […] The resulting image was quantified by densitometric analysis using Image Studio Lite (LI-COR). […]

Data set [4] has as its system E. coli BL21(DE3). The data set is described as follows: dATP uptake assay. How it is done: as §3, §4

“T7 RNAP: T7 RNA polymerase expressed in the E. coli (DE3) host strains”: the toxicity of expression result in the data set with E. coli BL21(DE3) [1] is “toxic”.

B1: PtNTT2(66-575): N-terminally truncated PtNTT2 variant, amino acids 1-65 removed, SEQ ID NO: 4 (protein, listed as Phaeodactylum tricornutum)
chain: MGGSTVAPTTPLATGGALRKVRQAVFPIYGNQEVTKFLLIGSIKFFIILALTLTRDTKDTLIVTQCGAEAIAFLKIYGVLPAATAFIALYSKMSNAMGKKMLFYSTCIPFFTFFGLFDVFIYPNAERLHPSLEAVQAILPGGAASGGMAVLAKIATHWTSALFYVMAEIYSSVSVGLLFWQFANDVVNVDQAKRFYPLFAQMSGLAPVLAGQYVVRFASKAVNFEASMHRLTAAVTFAGIMICIFYQLSSSYVERTESAKPAADNEQSIKPKKKKPKMSMVESGKFLASSQYLRLIAMLVLGYGLSINFTEIMWKSLVKKQYPDPLDYQRFMGNFSSAVGLSTCIVIFFGVHVIRLLGWKVGALATPGIMAILALPFFACILLGLDSPARLEIAVIFGTIQSLLSKTSKYALFDPTTQMAYIPLDDESKVKGKAAIDVLGSRIGKSGGSLIQQGLVFVFGNIINAAPVVGVVYYSVLVAWMSAAGRLSGLFQAQTEMDKADKMEAKTNKEK
For the molecule B1, the toxicity of expression entry is “lower toxicity relative to the full length PtNTT2” in the data set on E. coli C41(DE3) [2] and “little increase in toxicity” in the data set with E. coli BL21(DE3) [1]. The “uptake of [α-32P]-dATP” value with E. coli C41(DE3) [3] was “reduced uptake”; in the data set on E. coli BL21(DE3) [4], “increased levels”.

B2: PtNTT2: nucleoside triphosphate transporter from Phaeodactylum tricornutum, full length, SEQ ID NO: 1 (protein, listed as Phaeodactylum tricornutum)
chain: MRPYPTIALISVFLSAATRISATSSHQASALPVKKGTHVPDSPKLSKLYIMAKTKSVSSSFDPPRGGSTVAPTTPLATGGALRKVRQAVFPIYGNQEVTKFLLIGSIKFFIILALTLTRDTKDTLIVTQCGAEAIAFLKIYGVLPAATAFIALYSKMSNAMGKKMLFYSTCIPFFTFFGLFDVFIYPNAERLHPSLEAVQAILPGGAASGGMAVLAKIATHWTSALFYVMAEIYSSVSVGLLFWQFANDVVNVDQAKRFYPLFAQMSGLAPVLAGQYVVRFASKAVNFEASMHRLTAAVTFAGIMICIFYQLSSSYVERTESAKPAADNEQSIKPKKKKPKMSMVESGKFLASSQYLRLIAMLVLGYGLSINFTEIMWKSLVKKQYPDPLDYQRFMGNFSSAVGLSTCIVIFFGVHVIRLLGWKVGALATPGIMAILALPFFACILLGLDSPARLEIAVIFGTIQSLLSKTSKYALFDPTTQMAYIPLDDESKVKGKAAIDVLGSRIGKSGGSLIQQGLVFVFGNIINAAPVVGVVYYSVLVAWMSAAGRLSGLFQAQTEMDKADKMEAKTNKEK
For the molecule B2, the toxicity of expression entry with E. coli C41(DE3) [2] is “toxic”.
